The target in the series is HoLaMa DNA polymerase (Klenow sub-fragment lacking the 3'-5' exonuclease domain) (UniProt P00582). As to the kind of experiment: intrinsic tryptophan fluorescence quenching titration. Conditions: 500 nM enzyme; n = 1.24 ± 0.03 DNA per enzyme; no dNTP; Kd titration: 50 mM sodium phosphate pH 8.0, 50 mM NaCl, temperature not stated in the material; stopped-flow: 50 mM Tris-HCl pH 8.0, 0.5 mM EDTA, 10 mM MgCl2 ….
Chain of UniProt P00582 (P00582 whole entry, the tested form may be a part): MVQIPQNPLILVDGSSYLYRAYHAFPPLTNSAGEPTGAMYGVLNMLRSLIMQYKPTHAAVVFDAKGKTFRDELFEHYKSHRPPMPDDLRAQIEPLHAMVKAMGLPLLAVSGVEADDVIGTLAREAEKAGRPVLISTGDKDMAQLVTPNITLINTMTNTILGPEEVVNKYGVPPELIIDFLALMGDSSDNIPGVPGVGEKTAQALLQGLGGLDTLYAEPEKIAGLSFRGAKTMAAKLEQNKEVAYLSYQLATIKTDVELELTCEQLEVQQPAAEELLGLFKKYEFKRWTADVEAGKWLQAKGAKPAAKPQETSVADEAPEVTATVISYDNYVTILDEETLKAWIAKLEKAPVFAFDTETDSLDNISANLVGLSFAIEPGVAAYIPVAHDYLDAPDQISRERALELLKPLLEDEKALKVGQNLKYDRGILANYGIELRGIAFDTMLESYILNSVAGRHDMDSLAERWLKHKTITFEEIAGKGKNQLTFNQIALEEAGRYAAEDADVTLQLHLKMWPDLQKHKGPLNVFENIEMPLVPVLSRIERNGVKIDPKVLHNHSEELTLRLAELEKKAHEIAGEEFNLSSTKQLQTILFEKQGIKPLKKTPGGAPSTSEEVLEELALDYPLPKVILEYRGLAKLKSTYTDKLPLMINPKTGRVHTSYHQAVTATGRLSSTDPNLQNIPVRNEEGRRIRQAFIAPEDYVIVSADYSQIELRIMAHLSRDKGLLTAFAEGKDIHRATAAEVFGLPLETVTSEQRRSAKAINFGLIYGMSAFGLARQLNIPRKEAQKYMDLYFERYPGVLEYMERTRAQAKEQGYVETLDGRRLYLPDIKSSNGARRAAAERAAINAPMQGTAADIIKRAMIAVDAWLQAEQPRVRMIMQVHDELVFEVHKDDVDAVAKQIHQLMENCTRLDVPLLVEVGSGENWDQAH

Usually Kd stands for the equilibrium constant for the complex coming apart. As for “AAAAAAAAAAAAAAAAAAAAAAAAAAAAAAAAGCGCGCGC / GCGCGCGCTTTTTTT [40mer polyA DNA (40mer template / 15mer primer)]”, the Kd is 0.0351 µM.

The values above are taken from publication PMC6457538.
